The values below come from PMC10307800, “Structure of human CALHM1 reveals key locations for channel regulation and blockade by ruthenium red” (Nature Communications, 2023).

The target of data set [1] is chicken CALHM1Δct (residues 1-291, C-terminal Strep-II tag) (chicken). Briefly: cryo-EM structure; single-particle 3D reconstruction in lipid nanodiscs (soybean polar extract, MSP2N2); chicken: 20 mM Tris pH 8.0, 150 mM NaCl, 1 mM EDTA; human: 20 mM HEPES-NaOH pH 7.5, 200 mM NaCl, 1 mM EDTA.
For data set [2] the target is unchanged. Briefly: cryo-EM 2D classification; 'top' views of 2D classification of the same nanodisc samples.
Data set [3] concerns the target human CALHM1Δct-Ile109Trp (C-terminal Strep-II tag) (human) (UniProt Q8IU99). Nature of the data set: cryo-EM structure; single-particle reconstruction in lipid nanodiscs, 20 mM HEPES-NaOH pH 7.5, 200 mM NaCl; with RuR (50 µM RuR, 1 mM EGTA; C8 and C1 maps) and RuR-free (1 mM EDTA).
Data set [4] concerns the target killifish CALHM1Δct (killifish). Briefly: cryo-EM 2D classification; reanalysis of the publicly available dataset EMPIAR #10444.
Data set [5] deals with the molecule itself. Briefly: cryo-EM structure; single-particle 3D reconstruction in lipid nanodiscs (soybean polar extract, MSP2N2); chicken: 20 mM Tris pH 8.0, 150 mM NaCl, 1 mM EDTA; human: 20 mM HEPES-NaOH pH 7.5, 200 mM NaCl, 1 mM EDTA.
Data set [6] deals with the molecule itself. Nature of the data set: cryo-EM 2D classification; 'top' views of 2D classification of the same nanodisc samples.

Where “and” joins values, the source holds several entries; their conditions need not be identical. Equal values may be shown once.

In the case of “chicken CALHM1Δct (residues 1-291, C-terminal Strep-II tag) (domain or fragment)”, the stoichiometry N – broadly, a count of units in the complex or per binding partner – in data set [1] is 8; in data set [2], 8 and 9.
Turning to “human CALHM1Δct-Ile109Trp (C-terminal Strep-II tag) (from UniProt Q8IU99 1-303) (domain or fragment)”, the stoichiometry N in data set [3] came out at 8.
Take “killifish CALHM1Δct (domain or fragment)”: in data set [4], the stoichiometry N was 8 and 9.

B1: human CALHM1Δct (calcium homeostasis modulator 1, residues 1-303, C-terminal Strep-II tag) (domain or fragment, UniProt Q8IU99 1-303, looked up)
chain: MMDKFRMIFQFLQSNQESFMNGICGIMALASAQMYSAFDFNCPCLPGYNAAYSAGILLAPPLVLFLLGLVMNNNVSMLAEEWKRPPGRRAKDPAVLRYMFCSMAQRALIAPVVWVAVTLLDGKCFLCAFCTAVPVSALGNGSLAPGLPAPELARLLARVPCPEIYDGDWLLAREVAVRYLRCISQALGWSFVLLTTLLAFVVRSVRPCFTQAAFLKSKYWSHYIDIERKLFDETCTEHAKAFAKVCIQQFFEAMNHDLELGHTHGTLATAPASAAAPTTPDGAEEEREKLRGITDQGTMNRLL
notes: calcium homeostasis modulator 1 (CALHM1), human, residues 1-303 (C-terminal truncation; residues 303-346 follow the CTH in the whole protein); Octamer in the 3D reconstruction; nonameric particles were also seen in 2D classes; also called hCALHM1Δct; hCALHM1∆ct; source: HEK293S GnTI- cells, baculovirus infection; purified (Strep-Tactin, SEC), reconstituted into lipid nanodiscs (MSP2N2, soybean …)
For B1, the “stoichiometry N” value was found to be 8 in data set [5] and 9 in data set [6].
